Measured values from publication doi:10.1101/620385.

What was measured:
[1] = target: unmodified nucleosome core particle (human | Xenopus laevis); test: SPR
[2] = target: nucleosome core particle with histone H3 phosphorylated at Thr3 (human | Xenopus laevis) (UniProt P84233); test: SPR

For “CPC localisation module (Borealin-Survivin-INCENP 1-58) (from UniProt Q53HL2;O15392;Q9NQS7) (complex)”, the Kd [1] was 295 nM and the Kd [2] was 103 nM.
“CPC localisation module containing Borealin 10-end (from UniProt Q53HL2;O15392;Q9NQS7) (complex)” gave a fold reduction in binding affinity against CPC LM [1] of 3 fold and a fold reduction in binding affinity against CPC LM [2] of 3 fold.
